{
  "source": "paper doi:10.1101/2020.05.01.070730",
  "about": "(bioRxiv, 2020)",
  "binders": {"B1": {"name": "CT-pDNA (dsDNA)", "DNA 1": "ATGTGAATCAGTATGGTTCCTATCTGC", "DNA 2": "ATTTCCTTCAGCAGATAGTAACCATACTGATTCACAT"}, "B2": {"name": "CA-pDNA (dsDNA)", "DNA 1": "ATGTGAATCAGTATGGTTCCTATCTGC", "DNA 2": "B1 DNA 2 with T19A"}, "B3": {"name": "TG-pDNA (dsDNA)", "DNA 1": "ATGTGAATCAGTATGGTTTCTATCTGC", "DNA 2": "B1 DNA 2 with T19G"}, "B4": {"name": "TT-pDNA (dsDNA)", "DNA 1": "ATGTGAATCAGTATGGTTTCTATCTGC", "DNA 2": "B1 DNA 2"}, "B5": {"name": "CC-pDNA (dsDNA)", "DNA 1": "ATGTGAATCAGTATGGTTCCTATCTGC", "DNA 2": "B1 DNA 2 with T19C"}, "B6": {"name": "TC-pDNA (dsDNA)", "DNA 1": "ATGTGAATCAGTATGGTTTCTATCTGC", "DNA 2": "B1 DNA 2 with T19C"}, "B7": {"name": "GA-pDNA (dsDNA)", "DNA 1": "ATGTGAATCAGTATGGTTGCTATCTGC", "DNA 2": "B1 DNA 2 with T19A"}, "B8": {"name": "AC-pDNA (dsDNA)", "DNA 1": "ATGTGAATCAGTATGGTTACTATCTGC", "DNA 2": "B1 DNA 2 with T19C"}, "B9": {"name": "GG-pDNA (dsDNA)", "DNA 1": "ATGTGAATCAGTATGGTTGCTATCTGC", "DNA 2": "B1 DNA 2 with T19G"}, "B10": {"name": "GT-pDNA 13 nt (dsDNA)", "DNA 1": "ATGTGAATCAGTATGGTTGCTATCTGCTGAAG", "DNA 2": "B1 DNA 2"}},
  "note": "Numbering of substitutions follows the chain as printed.",
  "data": [
    {"target": "T1, MutS (Pseudomonas aeruginosa, UniProt Q9HY08 1-855)", "T1 sequence": "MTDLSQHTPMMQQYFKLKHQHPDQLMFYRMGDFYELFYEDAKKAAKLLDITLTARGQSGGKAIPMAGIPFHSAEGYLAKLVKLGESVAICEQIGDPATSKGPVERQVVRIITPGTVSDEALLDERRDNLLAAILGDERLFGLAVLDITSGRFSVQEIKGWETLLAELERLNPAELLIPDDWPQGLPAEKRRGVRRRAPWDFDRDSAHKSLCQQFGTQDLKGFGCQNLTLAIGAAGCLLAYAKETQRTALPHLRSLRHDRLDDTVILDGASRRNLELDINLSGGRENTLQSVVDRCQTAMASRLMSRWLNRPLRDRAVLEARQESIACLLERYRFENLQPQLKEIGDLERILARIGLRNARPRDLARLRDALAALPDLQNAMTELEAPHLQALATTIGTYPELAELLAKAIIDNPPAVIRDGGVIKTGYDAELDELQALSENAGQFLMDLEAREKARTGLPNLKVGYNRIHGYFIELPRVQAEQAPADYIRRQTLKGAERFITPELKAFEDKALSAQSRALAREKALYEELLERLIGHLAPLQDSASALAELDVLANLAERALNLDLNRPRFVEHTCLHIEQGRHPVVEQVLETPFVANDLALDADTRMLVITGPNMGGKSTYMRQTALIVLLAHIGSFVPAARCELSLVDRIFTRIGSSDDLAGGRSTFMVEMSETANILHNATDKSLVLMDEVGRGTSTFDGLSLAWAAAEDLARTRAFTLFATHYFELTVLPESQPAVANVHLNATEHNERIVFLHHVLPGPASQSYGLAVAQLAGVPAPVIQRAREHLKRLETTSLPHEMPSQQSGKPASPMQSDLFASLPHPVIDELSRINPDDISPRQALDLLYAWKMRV", "test": "native PAGE shift", "values": [
      {"binder": "B1", "binding result": "binds"}
    ]},
    {"target": "T1, MutS", "test": "native PAGE shift", "remark": "another data set of the same source", "values": [
      {"binder": "B2", "binding result": "binds"},
      {"binder": "B3", "binding result": "binds"},
      {"binder": "B4", "binding result": "binds"}
    ]},
    {"target": "T2, MutS R842E (Pseudomonas aeruginosa, UniProt Q9HY08 1-855, R842E)", "T2 sequence": "T1 sequence with R842E", "test": "native PAGE shift", "values": [
      {"binder": "B5", "binding result": "binds"},
      {"binder": "B6", "binding result": "binds"},
      {"binder": "B3", "binding result": "binds"},
      {"binder": "B4", "binding result": "binds"},
      {"binder": "B1", "binding result": "binds"},
      {"binder": "B7", "binding result": "binds"},
      {"binder": "B8", "binding result": "binds"},
      {"binder": "B9", "binding result": "binds"}
    ]},
    {"target": "T2, MutS R842E", "test": "native PAGE shift", "remark": "another data set of the same source", "values": [
      {"binder": "B10", "binding result": "binds"}
    ]},
    {"target": "T1, MutS", "test": "native PAGE shift", "remark": "another data set of the same source", "values": [
      {"binder": "B10", "binding result": "binds"},
      {"binder": "B5", "binding result": "binds"},
      {"binder": "B6", "binding result": "binds"},
      {"binder": "B7", "binding result": "binds"},
      {"binder": "B9", "binding result": "binds"}
    ]},
    {"target": "T1, MutS", "test": "native PAGE shift", "remark": "another data set of the same source", "values": [
      {"binder": "B8", "binding result": "binds"}
    ]}
  ]
}
